Results published in the supplement of paper PMC7877785.
± gives the uncertainty stated by the source.

Experiment: self-splicing fitness, log relative to wild type (ln ratio); higher = more splicing; Tetrahymena group I intron in knt gene, E. coli kanamycin selection, DiMSum; sequences stand for … in CUCUCU…GGAGGGAAAAGUUAUCAGGCAUGCACCUGGUAGCUAGUCUUUAAACCAAUAGAUUGCAUCGGUUUAAAAGGCAAGACCGUCAAAUUGCGGGAAAGGGGUCAACAGCCGUUCAGUACCAAGUCUCAGGGGAAACUUUGAGAUGGCCUUGCAAAGGGUAUGGUAAUAAGCUGACGGACAUGGUCCUAACCACGCAGCCAAGUCCUAAGUCAACAGAUCUUCUGUUGAUAUGGAUGCAGUUCACAGACUAAAUGUCGGUCGGGGAAGAUGUAUUCUUCUCAUAAGAUAUAGUCGGACCUCUCCUUAAUGGGAGCUAGCGGAUGAAGUGAUGCAACACUGGAGCCGCUGGGAACUAAUUUGUAUGCGAAAGUAUAUUGAUUAGUUUUGGAGUACUCGUGGUCG
Procedure, shortened: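 A randomised library covering all eight P1ex-region intron nucleotides was built with the intron in the knt kanamycin-resistance gene on pET-22b(+) and held in E. coli BL21(DE3). Cells were grown overnight at 37°C or 30°C on LB agar, with or without 25 μg/mL kanamycin, plus 100 μg/mL carbenicillin, 50 μM IPTG and 0.2% rhamnose, and pooled colonies were amplicon-sequenced on an Illumina HiSeq 2500. DiMSum fitness is the error-weighted combination of wild-type-normalised replicate fold changes, kanamycin versus none.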

Sequence	self-splicing fitness (ln) (30 °C)	self-splicing fitness (ln) (37 °C)
UCAUAGCAAUAUUACGUAGA	-1.88 ± 0.097	-1.8 ± 0.12
ACGUAGCAAUAUUACGCGCA	-0.687 ± 0.076	-0.337 ± 0.097
UGGUAGCAAUAUUACGAGCA	-0.502 ± 0.15	-0.131 ± 0.21
UCCUAGCAAUAUUACGAGCA	-1.64 ± 0.42	-1.11 ± 0.23
CAUAAGCAAUAUUACGUUGU	-3.55 ± 0.15	-2.98 ± 0.18
CACGAGCAAUAUUACGCGGG	-4.05 ± 0.26	-2.88 ± 0.26
AGGCAGCAAUAUUACGGUUU	-0.696 ± 0.043	-0.371 ± 0.062
CUAUAGCAAUAUUACGAGGA	-3.62 ± 0.41	-1.73 ± 0.31
AUUAAGCAAUAUUACGCAAU	-1.74 ± 0.13	-2.34 ± 0.23
CACGAGCAAUAUUACGACGG	-1.6 ± 0.13	-0.392 ± 0.14
UACCAGCAAUAUUACGAUUC	-2.36 ± 0.21	-1.55 ± 0.18
CAGGAGCAAUAUUACGACUG	–	-2.83 ± 0.38
GCACAGCAAUAUUACGCCGG	-1.25 ± 0.1	-0.896 ± 0.16
GCGGAGCAAUAUUACGAAAU	-2.94 ± 0.5	-1.23 ± 0.42
GUAAAGCAAUAUUACGCCCG	0.162 ± 0.18	-0.247 ± 0.19
ACCGAGCAAUAUUACGAUAA	-3.72 ± 0.23	-2.01 ± 0.2
CGAUAGCAAUAUUACGGCGG	-0.197 ± 0.077	0.211 ± 0.1
UGCGAGCAAUAUUACGAACG	-1.07 ± 0.14	-1.05 ± 0.16
UGAUAGCAAUAUUACGAAGC	-3.24 ± 0.32	–
ACGCAGCAAUAUUACGGGAG	-2.73 ± 0.11	-1.62 ± 0.11
GCUAAGCAAUAUUACGCAUG	-2.51 ± 0.16	-2.09 ± 0.15
AGCGAGCAAUAUUACGUUUU	-3.47 ± 0.28	-1.66 ± 0.22
CCGUAGCAAUAUUACGCUCA	–	-2.36 ± 0.26
UCGCAGCAAUAUUACGUAAC	-3.25 ± 0.29	-1.73 ± 0.23
ACCCAGCAAUAUUACGGUUG	-3.66 ± 0.18	-2.3 ± 0.19
CGACAGCAAUAUUACGAAAC	-3.49 ± 0.27	-2.39 ± 0.25

Sequence	self-splicing fitness (ln) (30 °C)	self-splicing fitness (ln) (37 °C)
AACAAGCAAUAUUACGCCGU	-1.5 ± 0.096	-0.696 ± 0.094
UUGCAGCAAUAUUACGAGGU	-3.94 ± 0.33	-2.65 ± 0.44
GGGAAGCAAUAUUACGCUGA	-2.63 ± 0.33	-1.54 ± 0.25
UGGAAGCAAUAUUACGGAUU	-1.49 ± 0.08	-1.68 ± 0.12
GCAUAGCAAUAUUACGGAAC	-3.61 ± 0.29	-3.46 ± 0.34
GGCGAGCAAUAUUACGGCGA	-0.138 ± 0.078	-0.0802 ± 0.092
CUUCAGCAAUAUUACGAAGU	-2.31 ± 0.17	-2.66 ± 0.38
AUCCAGCAAUAUUACGUUCU	-1.64 ± 0.096	-1.39 ± 0.13
GUCGAGCAAUAUUACGGUUA	-2.03 ± 0.49	0.142 ± 0.25
GUGAAGCAAUAUUACGUUCG	-0.236 ± 0.095	-0.797 ± 0.1
GUACAGCAAUAUUACGGUGU	-3.2 ± 0.14	-1.51 ± 0.13
ACAAAGCAAUAUUACGGAUG	-1.59 ± 0.087	-1.08 ± 0.1
ACUAAGCAAUAUUACGAUGU	-1.62 ± 0.1	-1.38 ± 0.13
UCACAGCAAUAUUACGUACC	-2.45 ± 0.23	-2.37 ± 0.23
GGUAAGCAAUAUUACGACGG	-3.74 ± 0.33	-2.84 ± 0.34
UUAGAGCAAUAUUACGUACU	-3.2 ± 0.34	-1.81 ± 0.31
UCGCAGCAAUAUUACGUACG	-1.12 ± 0.12	-0.686 ± 0.13
ACUCAGCAAUAUUACGUAGG	-0.866 ± 0.06	-0.368 ± 0.092
UUCUAGCAAUAUUACGCUUA	-1.24 ± 0.12	-0.839 ± 0.14
UGACAGCAAUAUUACGGUUG	-2.49 ± 0.13	-1.56 ± 0.15
GUAUAGCAAUAUUACGUUGG	-3.33 ± 0.31	-1.12 ± 0.26
GGUAAGCAAUAUUACGGAUU	-0.823 ± 0.094	-0.646 ± 0.11
AGCUAGCAAUAUUACGCAAC	-3.6 ± 0.35	-1.86 ± 0.32
CGACAGCAAUAUUACGACUG	-1.32 ± 0.089	-0.0407 ± 0.14
GAUGAGCAAUAUUACGUUCU	-2.89 ± 0.16	-1.32 ± 0.12
UCAGAGCAAUAUUACGUCCG	-2.17 ± 0.2	-1.14 ± 0.25

Sequence	self-splicing fitness (ln) (30 °C)	self-splicing fitness (ln) (37 °C)
UAGUAGCAAUAUUACGGUUA	-0.28 ± 0.077	0.03 ± 0.091
GAAUAGCAAUAUUACGUACG	-1.38 ± 0.12	-1.45 ± 0.14
CGCUAGCAAUAUUACGCUGA	-2.69 ± 0.2	-2.26 ± 0.22
UGGGAGCAAUAUUACGUGCU	-2.65 ± 0.32	-1.05 ± 0.25
UCAAAGCAAUAUUACGGCAC	-3.33 ± 0.38	-1.68 ± 0.35
GGCGAGCAAUAUUACGAGGA	-3.43 ± 0.43	-2.43 ± 0.25
AGGCAGCAAUAUUACGCACG	-0.754 ± 0.069	-0.342 ± 0.11
AAAAAGCAAUAUUACGGCGU	-0.321 ± 0.078	0.208 ± 0.098
UUGGAGCAAUAUUACGAUAG	-2.56 ± 0.37	–
UAUAAGCAAUAUUACGGUCU	-1.22 ± 0.13	-1.05 ± 0.17
UGGAAGCAAUAUUACGUAAA	-2.28 ± 0.21	0.0471 ± 0.21
GUGAAGCAAUAUUACGUAUU	-1.21 ± 0.12	0.0695 ± 0.12
GCGAAGCAAUAUUACGGAAC	-2.72 ± 0.21	-2.28 ± 0.47
AUGGAGCAAUAUUACGUCCA	-0.783 ± 0.45	-0.778 ± 0.34
CAAUAGCAAUAUUACGUGAC	-3.84 ± 0.25	-2.21 ± 0.22
GACGAGCAAUAUUACGAUGU	-3.94 ± 0.26	-1.38 ± 0.14
AUCGAGCAAUAUUACGAUCA	–	-0.193 ± 0.26
CCCAAGCAAUAUUACGCGCA	-4.14 ± 0.35	-2.72 ± 0.21
CGUUAGCAAUAUUACGGGCC	-1.91 ± 0.18	-1.75 ± 0.24
UUACAGCAAUAUUACGCGCC	-2.36 ± 0.14	-0.896 ± 0.2
GUACAGCAAUAUUACGUAAG	-1.08 ± 0.096	-0.465 ± 0.11
AUUUAGCAAUAUUACGCAAA	-1.86 ± 0.15	-1.82 ± 0.17
CUCAAGCAAUAUUACGUUCU	-3.9 ± 0.19	-2.68 ± 0.17
GAAUAGCAAUAUUACGCGCC	-1.29 ± 0.24	-1.32 ± 0.29
UAGUAGCAAUAUUACGCAUG	-1.58 ± 0.092	-0.443 ± 0.095
